Read-outs that look alike come from different tables or passages of the source.
T1: Kv1.3 (cloned) (Mus musculus (Mouse)), P16390
T1 chain: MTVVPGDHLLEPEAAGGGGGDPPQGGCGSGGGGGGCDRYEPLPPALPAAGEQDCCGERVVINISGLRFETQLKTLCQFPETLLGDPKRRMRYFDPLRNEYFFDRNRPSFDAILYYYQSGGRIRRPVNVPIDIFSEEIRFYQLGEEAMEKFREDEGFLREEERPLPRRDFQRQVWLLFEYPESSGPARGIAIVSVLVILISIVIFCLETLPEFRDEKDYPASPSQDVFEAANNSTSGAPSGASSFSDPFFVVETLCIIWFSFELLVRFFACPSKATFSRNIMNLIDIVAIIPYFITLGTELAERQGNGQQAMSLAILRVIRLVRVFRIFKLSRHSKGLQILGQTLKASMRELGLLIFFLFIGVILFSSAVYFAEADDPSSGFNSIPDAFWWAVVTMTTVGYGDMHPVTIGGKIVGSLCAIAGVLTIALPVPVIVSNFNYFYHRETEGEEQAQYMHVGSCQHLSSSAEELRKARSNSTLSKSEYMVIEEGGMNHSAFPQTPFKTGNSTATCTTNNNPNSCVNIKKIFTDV

T2: Kv1.1 (Mus musculus (Mouse)), P16388
T2 chain: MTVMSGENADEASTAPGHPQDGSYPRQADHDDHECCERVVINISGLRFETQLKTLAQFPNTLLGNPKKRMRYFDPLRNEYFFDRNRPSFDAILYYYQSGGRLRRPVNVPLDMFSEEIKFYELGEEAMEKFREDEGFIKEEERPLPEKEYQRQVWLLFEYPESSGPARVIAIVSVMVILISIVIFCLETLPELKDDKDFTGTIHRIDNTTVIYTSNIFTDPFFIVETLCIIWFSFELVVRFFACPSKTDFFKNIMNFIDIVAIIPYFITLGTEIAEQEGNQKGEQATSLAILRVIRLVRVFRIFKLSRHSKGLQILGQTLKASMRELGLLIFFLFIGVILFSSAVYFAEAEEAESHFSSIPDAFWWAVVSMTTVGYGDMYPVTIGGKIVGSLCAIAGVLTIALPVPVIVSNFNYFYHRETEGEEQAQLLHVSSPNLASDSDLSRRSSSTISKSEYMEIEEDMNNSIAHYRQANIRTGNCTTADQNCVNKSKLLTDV


Assays:
[1] = target: T1, Kv1.3 (cloned) (Mus musculus (Mouse)), …
[2] = target: T2, Kv1.1 (Mus musculus (Mouse)), P16388; assay: patch-clamp, block of channel current
[3] = target: T1, Kv1.3 (cloned) (Mus musculus (Mouse)), …; assay: patch-clamp, block of channel current
[4] = target: T2, Kv1.1 (Mus musculus (Mouse)), P16388; assay: patch-clamp, ratio of Kd values; reference margatoxin on Kv1.3

| Binder | Kd [1] [pM] | Kd [2] [pM] | Kd [3] [pM] | fold selectivity for Kv1.3 over this channel [4] [fold] |
| --- | --- | --- | --- | --- |
| RSCIDTIPKSRCTAFQCKHSMKYRLSFCRKTCGTC (modifications not checked) [ShK toxin] | 10 |  |  |  |
| TIINVKCTSPKQCLPPCKAQFGQSAGAKCMNGKCKCYPH (modifications not checked) [Margatoxin, P40755 1-39] |  | 10000 | 110 | 9 |

From US8080523
